Sequences and labels used below:
B1: FIXa variant Y155F/I251S/R318Y/R338E/R403E/E410N (protein)
chain 1: YNSGKLEEFVQGNLERECMEEKCSFEEAREVFENTERTTEFWKQYVDGDQCESNPCLNGGSCKDDINSYECWCPFGFEGKNCELDVTCNIKNGRCEQFCKNSADNKVVCSCTEGYRLAENQKSCEPAVPFPCGRVSVSQTSKLTR
chain 2: VVGGEDAKPGQFPWQVVLNGKVDAFCGGSIVNEKWIVTAAHCVETGVKITVVAGEHNIEETEHTEQKRNVSRIIPHHNYNAAINKYNHDIALLELDEPLVLNSYVTPICIADKEYTNIFLKFGSGYVSGWGRVFHKGYSALVLQYLRVPLVDRATCLESTKFTIYNNMFCAGFHEGGRDSCQGDSGGPHVTEVEGTSFLTGIISWGEECAMKGKYGIYTKVSEYVNWIKNKTKLT
B2: FIXa variant K247N/N249S/R318Y/R338E/E410N (protein)
chain 1: YNSGKLEEFVQGNLERECMEEKCSFEEAREVFENTERTTEFWKQYVDGDQCESNPCLNGGSCKDDINSYECWCPFGFEGKNCELDVTCNIKNGRCEQFCKNSADNKVVCSCTEGYRLAENQKSCEPAVPFPCGRVSVSQTSKLTR
chain 2: VVGGEDAKPGQFPWQVVLNGKVDAFCGGSIVNEKWIVTAAHCVETGVKITVVAGEHNIEETEHTEQNRSVIRIIPHHNYNAAINKYNHDIALLELDEPLVLNSYVTPICIADKEYTNIFLKFGSGYVSGWGRVFHKGYSALVLQYLRVPLVDRATCLESTKFTIYNNMFCAGFHEGGRDSCQGDSGGPHVTEVEGTSFLTGIISWGEECAMKGKYGIYTKVSRYVNWIKNKTKLT
B3: FIXa-R318Y/R338E/T343R/N346D/R403E/E410N (protein)
chain 1: YNSGKLEEFVQGNLERECMEEKCSFEEAREVFENTERTTEFWKQYVDGDQCESNPCLNGGSCKDDINSYECWCPFGFEGKNCELDVTCNIKNGRCEQFCKNSADNKVVCSCTEGYRLAENQKSCEPAVPFPCGRVSVSQTSKLTR
chain 2: VVGGEDAKPGQFPWQVVLNGKVDAFCGGSIVNEKWIVTAAHCVETGVKITVVAGEHNIEETEHTEQKRNVIRIIPHHNYNAAINKYNHDIALLELDEPLVLNSYVTPICIADKEYTNIFLKFGSGYVSGWGRVFHKGYSALVLQYLRVPLVDRATCLESTKFRIYDNMFCAGFHEGGRDSCQGDSGGPHVTEVEGTSFLTGIISWGEECAMKGKYGIYTKVSEYVNWIKNKTKLT
B4: FIXa variant Y155F/K247N/N249S/R318Y/R338E/E410N (protein)
chain 1: YNSGKLEEFVQGNLERECMEEKCSFEEAREVFENTERTTEFWKQYVDGDQCESNPCLNGGSCKDDINSYECWCPFGFEGKNCELDVTCNIKNGRCEQFCKNSADNKVVCSCTEGYRLAENQKSCEPAVPFPCGRVSVSQTSKLTR
chain 2: VVGGEDAKPGQFPWQVVLNGKVDAFCGGSIVNEKWIVTAAHCVETGVKITVVAGEHNIEETEHTEQNRSVIRIIPHHNYNAAINKYNHDIALLELDEPLVLNSYVTPICIADKEYTNIFLKFGSGYVSGWGRVFHKGYSALVLQYLRVPLVDRATCLESTKFTIYNNMFCAGFHEGGRDSCQGDSGGPHVTEVEGTSFLTGIISWGEECAMKGKYGIYTKVSRYVNWIKNKTKLT
B5: FIXa variant Y155F/K247N/N249S/R318Y/R338E/R403E/E410N (protein)
chain 1: YNSGKLEEFVQGNLERECMEEKCSFEEAREVFENTERTTEFWKQYVDGDQCESNPCLNGGSCKDDINSYECWCPFGFEGKNCELDVTCNIKNGRCEQFCKNSADNKVVCSCTEGYRLAENQKSCEPAVPFPCGRVSVSQTSKLTR
chain 2: VVGGEDAKPGQFPWQVVLNGKVDAFCGGSIVNEKWIVTAAHCVETGVKITVVAGEHNIEETEHTEQNRSVIRIIPHHNYNAAINKYNHDIALLELDEPLVLNSYVTPICIADKEYTNIFLKFGSGYVSGWGRVFHKGYSALVLQYLRVPLVDRATCLESTKFTIYNNMFCAGFHEGGRDSCQGDSGGPHVTEVEGTSFLTGIISWGEECAMKGKYGIYTKVSEYVNWIKNKTKLT
B6: FIXa-D104N/K106S/K228N/K247N/N249S/R318Y/R338E/R403E/E410N (protein)
chain 1: YNSGKLEEFVQGNLERECMEEKCSFEEAREVFENTERTTEFWKQYVDGDQCESNPCLNGGSCKDDINSYECWCPFGFEGKNCELDVTCNIKNGRCEQFCKNSANNSVVCSCTEGYRLAENQKSCEPAVPFPCGRVSVSQTSKLTR
chain 2: VVGGEDAKPGQFPWQVVLNGKVDAFCGGSIVNEKWIVTAAHCVETGVNITVVAGEHNIEETEHTEQNRSVIRIIPHHNYNAAINKYNHDIALLELDEPLVLNSYVTPICIADKEYTNIFLKFGSGYVSGWGRVFHKGYSALVLQYLRVPLVDRATCLESTKFTIYNNMFCAGFHEGGRDSCQGDSGGPHVTEVEGTSFLTGIISWGEECAMKGKYGIYTKVSEYVNWIKNKTKLT
B7: FIXa variant D104N/K106S/Y155F/K247N/N249S/R318Y/R338E/R403E/E410N (protein)
chain 1: YNSGKLEEFVQGNLERECMEEKCSFEEAREVFENTERTTEFWKQYVDGDQCESNPCLNGGSCKDDINSYECWCPFGFEGKNCELDVTCNIKNGRCEQFCKNSANNSVVCSCTEGYRLAENQKSCEPAVPFPCGRVSVSQTSKLTR
chain 2: VVGGEDAKPGQFPWQVVLNGKVDAFCGGSIVNEKWIVTAAHCVETGVKITVVAGEHNIEETEHTEQNRSVIRIIPHHNYNAAINKYNHDIALLELDEPLVLNSYVTPICIADKEYTNIFLKFGSGYVSGWGRVFHKGYSALVLQYLRVPLVDRATCLESTKFTIYNNMFCAGFHEGGRDSCQGDSGGPHVTEVEGTSFLTGIISWGEECAMKGKYGIYTKVSEYVNWIKNKTKLT
B8: FIXa-Y155F/R318Y/R338E/T343R/R403E/E410N (protein)
chain 1: YNSGKLEEFVQGNLERECMEEKCSFEEAREVFENTERTTEFWKQYVDGDQCESNPCLNGGSCKDDINSYECWCPFGFEGKNCELDVTCNIKNGRCEQFCKNSADNKVVCSCTEGYRLAENQKSCEPAVPFPCGRVSVSQTSKLTR
chain 2: VVGGEDAKPGQFPWQVVLNGKVDAFCGGSIVNEKWIVTAAHCVETGVKITVVAGEHNIEETEHTEQKRNVIRIIPHHNYNAAINKYNHDIALLELDEPLVLNSYVTPICIADKEYTNIFLKFGSGYVSGWGRVFHKGYSALVLQYLRVPLVDRATCLESTKFRIYNNMFCAGFHEGGRDSCQGDSGGPHVTEVEGTSFLTGIISWGEECAMKGKYGIYTKVSEYVNWIKNKTKLT
B9: FIXa variant K247N/N249S/R318Y/R338E/R403E/E410N (protein)
chain 1: YNSGKLEEFVQGNLERECMEEKCSFEEAREVFENTERTTEFWKQYVDGDQCESNPCLNGGSCKDDINSYECWCPFGFEGKNCELDVTCNIKNGRCEQFCKNSADNKVVCSCTEGYRLAENQKSCEPAVPFPCGRVSVSQTSKLTR
chain 2: VVGGEDAKPGQFPWQVVLNGKVDAFCGGSIVNEKWIVTAAHCVETGVKITVVAGEHNIEETEHTEQNRSVIRIIPHHNYNAAINKYNHDIALLELDEPLVLNSYVTPICIADKEYTNIFLKFGSGYVSGWGRVFHKGYSALVLQYLRVPLVDRATCLESTKFTIYNNMFCAGFHEGGRDSCQGDSGGPHVTEVEGTSFLTGIISWGEECAMKGKYGIYTKVSEYVNWIKNKTKLT
B10: FIXa variant I251S/R318Y/R338E/E410N (protein)
chain 1: YNSGKLEEFVQGNLERECMEEKCSFEEAREVFENTERTTEFWKQYVDGDQCESNPCLNGGSCKDDINSYECWCPFGFEGKNCELDVTCNIKNGRCEQFCKNSADNKVVCSCTEGYRLAENQKSCEPAVPFPCGRVSVSQTSKLTR
chain 2: VVGGEDAKPGQFPWQVVLNGKVDAFCGGSIVNEKWIVTAAHCVETGVKITVVAGEHNIEETEHTEQKRNVSRIIPHHNYNAAINKYNHDIALLELDEPLVLNSYVTPICIADKEYTNIFLKFGSGYVSGWGRVFHKGYSALVLQYLRVPLVDRATCLESTKFTIYNNMFCAGFHEGGRDSCQGDSGGPHVTEVEGTSFLTGIISWGEECAMKGKYGIYTKVSRYVNWIKNKTKLT
B11: FIXa-D104N/K106S/R318Y/R338E/T343R/R403E/E410N (protein)
chain 1: YNSGKLEEFVQGNLERECMEEKCSFEEAREVFENTERTTEFWKQYVDGDQCESNPCLNGGSCKDDINSYECWCPFGFEGKNCELDVTCNIKNGRCEQFCKNSANNSVVCSCTEGYRLAENQKSCEPAVPFPCGRVSVSQTSKLTR
chain 2: VVGGEDAKPGQFPWQVVLNGKVDAFCGGSIVNEKWIVTAAHCVETGVKITVVAGEHNIEETEHTEQKRNVIRIIPHHNYNAAINKYNHDIALLELDEPLVLNSYVTPICIADKEYTNIFLKFGSGYVSGWGRVFHKGYSALVLQYLRVPLVDRATCLESTKFRIYNNMFCAGFHEGGRDSCQGDSGGPHVTEVEGTSFLTGIISWGEECAMKGKYGIYTKVSEYVNWIKNKTKLT
B12: FIXa variant D104N/K106S/K247N/N249S/R318Y/R338E/R403E/E410N (protein)
chain 1: YNSGKLEEFVQGNLERECMEEKCSFEEAREVFENTERTTEFWKQYVDGDQCESNPCLNGGSCKDDINSYECWCPFGFEGKNCELDVTCNIKNGRCEQFCKNSANNSVVCSCTEGYRLAENQKSCEPAVPFPCGRVSVSQTSKLTR
chain 2: VVGGEDAKPGQFPWQVVLNGKVDAFCGGSIVNEKWIVTAAHCVETGVKITVVAGEHNIEETEHTEQNRSVIRIIPHHNYNAAINKYNHDIALLELDEPLVLNSYVTPICIADKEYTNIFLKFGSGYVSGWGRVFHKGYSALVLQYLRVPLVDRATCLESTKFTIYNNMFCAGFHEGGRDSCQGDSGGPHVTEVEGTSFLTGIISWGEECAMKGKYGIYTKVSEYVNWIKNKTKLT
B13: FIXa-R318Y/R338E/T343R/N346Y/R403E/E410N (protein)
chain 1: YNSGKLEEFVQGNLERECMEEKCSFEEAREVFENTERTTEFWKQYVDGDQCESNPCLNGGSCKDDINSYECWCPFGFEGKNCELDVTCNIKNGRCEQFCKNSADNKVVCSCTEGYRLAENQKSCEPAVPFPCGRVSVSQTSKLTR
chain 2: VVGGEDAKPGQFPWQVVLNGKVDAFCGGSIVNEKWIVTAAHCVETGVKITVVAGEHNIEETEHTEQKRNVIRIIPHHNYNAAINKYNHDIALLELDEPLVLNSYVTPICIADKEYTNIFLKFGSGYVSGWGRVFHKGYSALVLQYLRVPLVDRATCLESTKFRIYYNMFCAGFHEGGRDSCQGDSGGPHVTEVEGTSFLTGIISWGEECAMKGKYGIYTKVSEYVNWIKNKTKLT
B14: FIXa-R318Y/R338E/N346Y/R403E/E410N (protein)
chain 1: YNSGKLEEFVQGNLERECMEEKCSFEEAREVFENTERTTEFWKQYVDGDQCESNPCLNGGSCKDDINSYECWCPFGFEGKNCELDVTCNIKNGRCEQFCKNSADNKVVCSCTEGYRLAENQKSCEPAVPFPCGRVSVSQTSKLTR
chain 2: VVGGEDAKPGQFPWQVVLNGKVDAFCGGSIVNEKWIVTAAHCVETGVKITVVAGEHNIEETEHTEQKRNVIRIIPHHNYNAAINKYNHDIALLELDEPLVLNSYVTPICIADKEYTNIFLKFGSGYVSGWGRVFHKGYSALVLQYLRVPLVDRATCLESTKFTIYYNMFCAGFHEGGRDSCQGDSGGPHVTEVEGTSFLTGIISWGEECAMKGKYGIYTKVSEYVNWIKNKTKLT

Sequence of Factor X (FX), P00742 (P00742 whole entry, looked up): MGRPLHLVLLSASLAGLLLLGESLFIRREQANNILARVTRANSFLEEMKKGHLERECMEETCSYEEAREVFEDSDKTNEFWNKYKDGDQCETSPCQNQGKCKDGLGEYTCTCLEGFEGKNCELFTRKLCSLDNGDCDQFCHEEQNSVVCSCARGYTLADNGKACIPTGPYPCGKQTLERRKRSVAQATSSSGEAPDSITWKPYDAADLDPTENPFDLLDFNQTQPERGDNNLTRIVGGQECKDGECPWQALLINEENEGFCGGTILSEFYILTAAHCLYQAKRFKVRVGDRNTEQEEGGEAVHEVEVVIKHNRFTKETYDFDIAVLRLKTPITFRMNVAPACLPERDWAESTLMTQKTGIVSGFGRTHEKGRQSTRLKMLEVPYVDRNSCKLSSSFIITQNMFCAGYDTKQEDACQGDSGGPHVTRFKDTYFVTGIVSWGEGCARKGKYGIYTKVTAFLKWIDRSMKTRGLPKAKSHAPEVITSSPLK

This data set has as its target Factor X (FX), P00742.
One may read the kcat as the number of substrate molecules converted per active site and unit of time at saturation. On to B1, for which the kcat was determined as 7.2 s⁻¹.

As for B2, the kcat worked out at 3.8 s⁻¹.

On to B3, for which the kcat of FX activation by FIXa (Xase complex with FVIIIa, PC/PS vesicles, Ca2+) is 5.4 s⁻¹.

For B4, the kcat turned out to be 4.5 s⁻¹.

B5: the kcat was 6.2 s⁻¹.

For the protein B6, the kcat of FX activation by FIXa (Xase complex with FVIIIa, PC/PS vesicles, Ca2+) was 6.1 s⁻¹.

As to B7, the kcat is 6.9 s⁻¹.

As for B8, the kcat of FX activation by FIXa (Xase complex with FVIIIa, PC/PS vesicles, Ca2+) worked out at 7.8 s⁻¹.

Regarding B9, the kcat is 5.8 s⁻¹.

For B10, the kcat amounted to 6.4 s⁻¹.

For the protein B11, the kcat of FX activation by FIXa (Xase complex with FVIIIa, PC/PS vesicles, Ca2+) turned out to be 5.7 s⁻¹.

In the case of B12, the kcat was 5.2 s⁻¹.

Regarding B13, the kcat of FX activation by FIXa (Xase complex with FVIIIa, PC/PS vesicles, Ca2+) stood at 4.6 s⁻¹.

Consider B14, for which the kcat of FX activation by FIXa (Xase complex with FVIIIa, PC/PS vesicles, Ca2+) was determined as 3.4 s⁻¹.

The values above are taken from US20210238260.
